Data on 23 sequences can be found in the supplement of paper PMC9170038.

In this data set the test system is MS2 coat protein. Put plainly: apparent KD of MS2 coat protein; designed switch direction (-1 OFF switch, 1 ON switch): -1; higher = weaker reporter binding. Summed up:
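The reported apparent KD is a per-design median over clusters, from curve fits of normalised cluster fluorescence. Protein titrations used SNAP-549-labelled MS2 coat protein, doubled from 0.7 or 1.5 nM to 3 µM, in Tris-HCl pH 7.5 buffer with KCl, MgCl2, BSA, DTT, tRNA and Tween-20, with no input, 200 uM small-molecule ligand, or an oligonucleotide input. The RNA switches were transcribed on Illumina chips by stalled E. coli RNA polymerase.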

Where [1] appears, read: input ligand: microRNA oligo, concentration not stated.
Where [2] appears, read: Eterna round: R95, input ligand: microRNA oligo, concentration not stated.
The mark [3] stands for this setting: Eterna round: R95, input ligand: FMN 200 uM.
Where [4] appears, read: Eterna round: R95, input ligand: none.

As for “UCACGGGAUUGAGGAUAUAUAUUAAUUUUUACAAUAGAAGGCAAAUUGUUAGUUUUUUCACUUUACAUGAGGAUCACCCAUGUU [JR_ExcBG1_Sub080] (Eterna round: R96, puzzle: Exclusion NG 1)”, the “apparent KD of MS2 coat protein” value under setting [1] is 19.6 nM.
“CUCACGCUCGAGGAUAUCGCACAAAACAAUCAACGAGAAGGCGAGACAUGAGGAUCACCCAUGUGUGGUCAAGA [Ceceed] (Eterna round: R97, puzzle: Exclusion 6)”: the “apparent KD of MS2 coat protein” value reads like this: (input ligand: FMN 200 uM) 80.9 nM; (input ligand: none) 590 nM.
Turning to “UUCUUACAUGAGGAUCACCCAUGUCAGGAUAUCUCCACACUGCGCUUGCGCAGUGUAUAGAGAAGGGACAGGCU [JL ViennaUCT Aner mod 5] (puzzle: Exclusion 1)”, the “apparent KD of MS2 coat protein” value under setting [2] stood at 40.7 nM.
In the case of “GACAUGUGAGGAUAUUGCAUAUAGUUAUAAGUUCAGGGCGGCAAGAAGGCACAUGAGGAUCACCCAUGUACCUU [Eternabot (L2) Solution 81] (Eterna round: R97, puzzle: Exclusion 4)”, the “apparent KD of MS2 coat protein” value was 18.7 nM (input ligand: FMN 200 uM) and 15.3 nM (input ligand: none).
With “CGAUGUCUUCGGACAUCGAACAUGAGGAUCACCCAUGUAAUGAGCAGAUCCUCAUGCAAGCUUUUUGCUCGUCUUAU [Sensor v3 - turn-off variant 1 - 45] (puzzle: Sensor v3, turn-off variant 1)”, the “apparent KD of MS2 coat protein” value is 14 nM under setting [3], 9.69 nM under setting [2] and 16.6 nM under setting [4].
“CCCGGGUUUGUGAGGAUAUCGGGCCCGAAAGGGCCCGAGAAGGCACAUGAGGAUCACCCAUGUAAGGGCCCGGG [-42.9, -40.9 kcal, A 23%, 0-5cbis] (Eterna round: R97, puzzle: Brourd's mod of Exclusion 4)”: the “apparent KD of MS2 coat protein” value runs as follows: (input ligand: FMN 200 uM) 29.3 nM; (input ligand: none) 26.1 nM.
“GGUAGUAUGAGUAGUCCUCAUUGAAGAGAUUGGUAAGAUACAUGAGGAUCACCCAUGUUUGAACAAGCUUUUGCUCU [JR_Sv3TOV2_Sub007] (puzzle: Sensor v3, turn-off variant 2)”: the “apparent KD of MS2 coat protein” value by setting is: under setting [3], 87.1 nM; under setting [2], 25.9 nM; under setting [4], 82.8 nM.
With “GUAGAGUCAGGAUAUACAAGAUCGAAAGAUCGAAGAUUUAUACAUGAGGAUCACCCAUGUAGAAGGGACUCUAC [ChP 11-04-2015 #4] (puzzle: Exclusion 2)”, the “apparent KD of MS2 coat protein” value under setting [2] turned out to be 12.4 nM.
Regarding “AAUUAUUAUUGAGGAUAUCGUAUUGAAACAAUACGAGAAGGCGGAAUAAACAUGAGGAUCACCCAUGUGAGCCUGAUGCUUAUG [Ex NG1 #43] (Eterna round: R96, puzzle: Exclusion NG 1)”, under setting [1], the “apparent KD of MS2 coat protein” value came out at 21.1 nM.
“GGUUGGCGAGGAUAUACAUGAGGAUCACCCAUGUGAGAGAAUAAAGUGAGGAAGAAAAGUAGAAGGCGCUGACA [Mat - Exclusion 3 - Mod of Salish D8] (puzzle: Exclusion 3)”: the “apparent KD of MS2 coat protein” value worked out at 154 nM under setting [3], 42.1 nM under setting [2] and 40.7 nM under setting [4].
The corresponding values for “CUUCUCAGAGGAUAUCACGGUAAUAACAUGAGGAUCACCCAUGUGGAAUUCGUGUCCCUGUGAGAAGGCUGAGAAG [Bezavere] (puzzle: Exclusion 5)” are 33.2 nM, 12.2 nM and 16 nM.
For the sequence “GGUGCGUAUGUGAGGAUAUGCUGGUCCUUGGAUCGGCAGAAGGUACAUGAGGAUCACCCAUGUGGUGUCGUUCC [salish99_Bmod_ex4_102] (puzzle: Brourd's mod of Exclusion 4)”, under setting [2], the “apparent KD of MS2 coat protein” value stood at 87 nM.
For “UGAGCUUGAGGAUAUACAAGGCGACCGUGAGGUCGAGGUUUACAUGAGGAUCACCCAUGUAGAAGGCAAGUUCU [Mat - Exclusion 2 - JL Mod - D8] (Eterna round: R97, puzzle: Exclusion 2)”, the “apparent KD of MS2 coat protein” value runs as follows: (input ligand: FMN 200 uM) 41.9 nM; (input ligand: none) 18.5 nM.
As to “UUAUUAUAUGUAGGAUAUGCAUAUUGUUGUUAUGCAGAAGGACAUGAGGAUCACCCAUGUAUAUUGUUGUUGUAUAUUAUAUAU [Title] (Eterna round: R96, puzzle: Exclusion NG 1)”, the “apparent KD of MS2 coat protein” value runs as follows: (input ligand: FMN 200 uM) 33.2 nM; under setting [1], 22.6 nM; (input ligand: none) 23.3 nM.
On to “ACAUGUUAUGUAGGAUAUUGGACACAUGAGGAUCACCCAUGUACCCGGAGGCUUUACUAUGAGUUCGAGAAGGGUAUGAACAUG [Ex NG2 #68] (Eterna round: R96, puzzle: Exclusion NG 2)”, for which the “apparent KD of MS2 coat protein” value stood at 39.8 nM (input ligand: FMN 200 uM), 21.1 nM under setting [1] and 29.4 nM (input ligand: none).
Turning to “AUGUUGCGAGGAUAUAUAAGGAGGUUAAAAUUUAUUAUGGAACAUGAGGAUCACCCAUGUAGAAGGUGCAUAAC [JR_Ex2_Sub038] (Eterna round: R97, puzzle: Exclusion 2)”, the “apparent KD of MS2 coat protein” value turned out to be 49.6 nM (input ligand: FMN 200 uM) and 55.7 nM (input ligand: none).
For “GUCAGUAUAUAACAAGCAUACAUGAGGAUCACCCAUGUGCGCGGAAAGCGUUUCCGCGCAUAUCGUUCCUAGCUCGG [Eternabot (Original) Solution 14] (Eterna round: R97, puzzle: Sensor, turn-off variant 1)”, the “apparent KD of MS2 coat protein” value was 419 nM (input ligand: FMN 200 uM) and 505 nM (input ligand: none).
With “UUAUUACAAGCAAGAUCCCACAUGAGGAUCACCCAUGUGCUCGUCUUAUAAGGUACUGUGACGAAAGUCACGGUACC [Sensor 3, v1 - 100] (puzzle: Sensor v3, turn-off variant 1)”, the “apparent KD of MS2 coat protein” value is, setting by setting: under setting [3], 25.8 nM; under setting [2], 701 nM; under setting [4], 24.7 nM.
In the case of “GGGUGUGCUAAGGAUAUCGGACCAUCGGGUAACUGAGAAGGUAGCACAUGAGGAUCACCCAUGUGUAACUUGAU [EX6 B.12] (Eterna round: R97, puzzle: Exclusion 6)”, the “apparent KD of MS2 coat protein” value (input ligand: FMN 200 uM) was 159 nM and the “apparent KD of MS2 coat protein” value (input ligand: none) worked out at 16 nM.
As to “AGUUGGCGAGGAUAUACAUGAGGAUCACCCAUGUGAGAGAUACUAGUGAGGUCGAUUGGUAGAAGGCGCUGACA [Mat - Exclusion 3 - Mod of JL D80] (puzzle: Exclusion 3)”, the “apparent KD of MS2 coat protein” value under setting [2] came out at 91.5 nM.
For “UGAGAGAGUAUAGGAUAUUAGAGGAGAAUGGUGAUAGAGACAUGAGGAUCACCCAUGUGAGGAGAUAAGAAGGGUAAGAACUCA [AK ExNG2-V2-4] (Eterna round: R96, puzzle: Exclusion NG 2)”, the “apparent KD of MS2 coat protein” value runs as follows: (input ligand: FMN 200 uM) 452 nM; under setting [1], 292 nM; (input ligand: none) 435 nM.
Taken in the same sequence, the figures for “GAACUAAAGCAAAGCUUUAGUCGUACAUGAGGAUCACCCAUGUAGGAUAUGGUAGGCAAAGCAUACCAGAAGGACAGAGUGAUC [Mat - Exclusion NG 3 - Mod of JL - D63] (Eterna round: R96, puzzle: Exclusion NG 3)” were 211 nM, 134 nM and 371 nM.
“CUGAGGUAGCGGUCCUAUUACAUGAGGAUCACCCAUGUACCUUGCUUCGAGCUUUUAGCUCGUCUUAUGAUUCUCGG [Mat - Sensor v3 - turn-off var 1 - JL Mod - D38] (puzzle: Sensor v3, turn-off variant 1)”: the “apparent KD of MS2 coat protein” value was 277 nM under setting [3], 447 nM under setting [2] and 381 nM under setting [4].
